Data reported in US20210079089A1 (SURROZEN OPERATING, published 2021).
Where a chain is given by its changes, count along the chain named. Names may count otherwise.

T1: biotinylated-LRP6 CRD (UniProt O75581 631-1246, limits assumed, biotinylated)
T1 construct: LRP6 has no CRD
T1 sequence (looked up): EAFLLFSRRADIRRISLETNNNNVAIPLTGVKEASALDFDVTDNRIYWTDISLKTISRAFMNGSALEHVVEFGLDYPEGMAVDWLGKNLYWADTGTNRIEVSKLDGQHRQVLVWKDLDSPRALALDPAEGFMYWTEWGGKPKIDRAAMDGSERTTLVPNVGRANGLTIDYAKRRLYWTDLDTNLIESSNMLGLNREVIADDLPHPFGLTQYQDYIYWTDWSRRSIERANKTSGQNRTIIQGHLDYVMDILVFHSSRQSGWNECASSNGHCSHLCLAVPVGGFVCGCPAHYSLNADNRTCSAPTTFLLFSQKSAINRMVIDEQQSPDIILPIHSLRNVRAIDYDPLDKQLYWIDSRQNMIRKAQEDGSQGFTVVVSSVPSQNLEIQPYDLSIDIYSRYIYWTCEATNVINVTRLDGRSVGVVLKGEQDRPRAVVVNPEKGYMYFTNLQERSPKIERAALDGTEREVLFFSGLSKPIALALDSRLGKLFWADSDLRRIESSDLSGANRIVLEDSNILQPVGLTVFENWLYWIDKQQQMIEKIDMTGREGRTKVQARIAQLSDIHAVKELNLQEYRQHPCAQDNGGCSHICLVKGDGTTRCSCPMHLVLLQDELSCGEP

T2: LRP6e1e2 (UniProt O75581 20-630, limits assumed, C-terminally biotinylated)
T2 construct: domain: E1E2; also called LRP6 E1E2 domains
T2 sequence (looked up): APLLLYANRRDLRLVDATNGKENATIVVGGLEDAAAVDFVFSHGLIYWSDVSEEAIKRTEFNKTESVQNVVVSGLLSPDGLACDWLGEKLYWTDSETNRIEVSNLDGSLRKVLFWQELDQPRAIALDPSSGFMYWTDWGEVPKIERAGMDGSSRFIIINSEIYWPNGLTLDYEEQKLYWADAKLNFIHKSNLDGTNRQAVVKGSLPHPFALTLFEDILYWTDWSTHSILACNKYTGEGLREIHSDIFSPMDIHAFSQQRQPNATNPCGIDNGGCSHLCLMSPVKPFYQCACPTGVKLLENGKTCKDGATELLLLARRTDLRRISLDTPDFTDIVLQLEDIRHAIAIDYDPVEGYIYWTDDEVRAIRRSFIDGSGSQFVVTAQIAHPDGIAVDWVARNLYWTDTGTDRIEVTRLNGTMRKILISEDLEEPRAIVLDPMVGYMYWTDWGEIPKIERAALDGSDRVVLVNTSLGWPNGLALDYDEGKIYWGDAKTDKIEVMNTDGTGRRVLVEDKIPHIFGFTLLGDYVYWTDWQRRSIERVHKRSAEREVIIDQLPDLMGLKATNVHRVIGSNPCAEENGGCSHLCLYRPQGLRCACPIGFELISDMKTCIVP

T3: LRP6E3E4_O75581_631-1246 (Homo sapiens (Human), UniProt O75581 631-1246, biotinylated in the BLI/SPR assays (C-terminal biotin acceptor peptide))
T3 construct: The entry holds residues 631-1246 of UniProt O75581 followed by a biotin acceptor peptide and eight His
T3 sequence: T1 sequence (looked up)

B1: 009S-E04 K1A (VHH)
VHH: DVQLVESGGGLVQAGGSLRLACAGSGRIFAIYDIAWYRHPPGNQRELVAMIRPVVTEIDYADSVKGRFTISRNNAMKTVYLQMNNLKPEDTAVYYCNAARPWGSRDEYWGQGTQVTVSS
B2: 009S-E04 G5A (VHH)
VHH: B1 VHH with A99K, G103A
B3: 009S-E04 R2A (VHH)
VHH: B1 VHH with A99K, R100A
B4: 009S-E04 R7A (VHH)
VHH: B1 VHH with A99K, R105A
B5: 009S-E04 D8A (VHH)
VHH: B1 VHH with A99K, D106A
B6: 009S-E04 W4A (VHH)
VHH: B1 VHH with A99K, W102A
B7: 009S-E04 P3A (VHH)
VHH: B1 VHH with A99K, P101A
B8: 009S-E04 Y10A (VHH)
VHH: B1 VHH with A99K, Y108A
B9: 009S-E04 S6A (VHH)
VHH: B1 VHH with A99K, S104A
B10: 009S-E04 E9A (VHH)
VHH: B1 VHH with A99K, E107A
B11: 009S-A03 (VHH)
VHH: QVQLVESGGGLVQAGDSLRLSCVVSGRTFSVYGVGWFRQAPGKEREVVAAVSASGGYTWYADSVKGRFTISRDNAKSTAFLQMNSLQPEDTAVYYCKAAPRWGGATAYWGQGTQVTVSS
B12: 009S-H03 (VHH)
VHH: DVQLVESGGGLVQAGESLRLSCAASGSIFSINTMGWYRQAPGKERELVAVITSGGKTVYADSVKGRFTITEDAAKNTVYLQMNSLKAEDTAVYYCYADSRSSWYDEYLEHWGQGTLVTVSS
B13: 009S-G04 (VHH)
VHH: EVQLVESGGGLVQAGGSLRVSCAASGGTFSRYHMGWFRQAPGKEREFVSAITWSGGRTYYADFVKGRFTISRDDARNTVYLQMSSLKPEDTAVYYCALTWAPTPTNRRSDYAYWGQGTQVTVSS
B14: 009S-F04 (VHH)
VHH: AVQLVESGGGVVQAGDSLTLSCTMSGRSLSSFAMGWFRRAPGKEREFVARISRGDGYTDEADSVKGRFTISRDNAKNTVYLQMNNVGPEDTAVYHCAAVQAVIGGTLTTAYDYWGQGTLVTVSS
B15: 013S-G04 (HC SEQ ID NO 15) (VHH)
VHH: AVQLVESGGGLVQAGGSLRLACAGSGRIFAIYDIAWYRQAPGNQRELVATIRPVVSETTYADAVKGRFTISRSNAMKTVYLQMNSLKSEDTAIYYCNAKRPWGTRDEYWGQGTLVTVSS
B16: 009S-H04 (VHH)
VHH: B15 VHH with A1E, I34M
B17: 009S-B04 (VHH)
VHH: DVQLVESGGGLVQPGGSLRLSCAASGSIFMINTMAWYRQAPGNQRELVATIRPVVSETTYADAVKGRFTISRDNAKNTVYLQMNSLKSEDTAIYYCNAKRPWGTRDEYWGQGTLVTVSS
B18: 009S-A05 (VHH)
VHH: AVQLVDSGGGLVQAGDSLTLSCAASGRTFSDYSMGWFRQAPGKEREFVAGISWIADNRYYADVVKGRFTISRDNAKNTVYLQMNSLKPEDTAVYYCTAGRSRYLYGSSLNGPYDYWGQGTQVTVSS
B19: 013S-H04 (HC SEQ ID NO 16) (VHH)
VHH: AVQLVDSGGGLVQAGGSLRLSCAVSGRTFSMYDMGWFRQAPGKEREFVASIRWSSGNTWYADSMKGRFTISRDNAKNTVYLQMNSLKPEDTAVYYCYANIYYTRRAPEEYWGQGTLVTVSS
B20: 001S-F11 (VHH)
VHH: QVQLVESGGGLVQAGGSLRLSCAASGRTFSSYAMSWFRQAPGKEREFVAVIGRSGGIKYYADSVKGRFTISRDNTINTVYLQMNNLTPEDTAIYYCATRRPFNSYNTEQSYDSWGRGTLVTVSS
B21: 013S-A05 (VHH)
VHH: EVQLVESGGGLVQAGGSLRLSCATSGRTFNTYAMGWFRQAPGKEREFVASVSWRYDRTYYTDTVKGRFTISRDNAKNTVYLQMNSLKPEDTAVYFCAADTNWRAGPRVGIDEYAYWGQGTLVTVSS
B22: 013S-G04 (HC SEQ ID NO 19) (VHH)
VHH: B15 VHH
B23: 013S-D05 (HC SEQ ID NO 23) (VHH)
VHH: QVKLEESGGGLVQAGGSLRLSCAASGRIFSIYDMGWFRQAPGKEREFVSGIRWSGGTSYADSVKGRFTISKDNAKNTIYLQMNNLKAEDTAVYYCGSRGYWGQGTLVTVSS
B24: 013S-C05 (HC SEQ ID NO 22) (VHH)
VHH: EVQLVESGGGLVQPGGSLRLSCAVSRNIFPIDDMSWYRQAPGKQRELVATVTSGGRINYADSVKGRFTISRDGARRTIDLQMNNLKPEDTAVYYCNVDRTLYGKYKEYWGQGTLVTVSS
B25: 013S-H04 (HC SEQ ID NO 20) (VHH)
VHH: B19 VHH

target: T1, biotinylated-LRP6 CRD; assay: Octet BLI, biotinylated LRP6
Protocol: (§1) Binding kinetics of antibody fragments to LRP5 extracellular domain (LRP5 ECD) and/or LRP6 extracellular domain (LRP6 ECD) protein targets was determined by bio-layer interferometry (BLI) using Octet Red 96 (PALL ForteBio, Fremont, Calif.) instruments at 30° C., 1000 rpm with streptavidin (SA) biosensors. C-terminal biotinylated LRP ECD recombinant protein was diluted to 20 nM in the running buffer (PBS, 0.05% Tween-20, 0.5% BSA, pH 7.2) and captured to the SA biosensor until coupling length reached 0.2 nm. Following capture of the LRP5 or LRP6, the SA biosensor with captured biotinylated-LRP5 or biotinylated LRP6 was dipped into wells containing the relevant antibody fragment at […] (0, 1.37, 4.12, 12.4, 37, 111.1, 333.3, 1000 nM) in running buffer, plus a well with only running buffer as a reference channel. KD was determined by global fitting, 1:1 binding model according to manufacturer recommended settings.
One antibody fragment, 009S-E04, was selected for alanine-scanning mutagenesis of CDRs, and the respective LRP6 binding affinities of the various mutants were determined by Octet BLI as described in Example 1.

Kd | Binder
< 100 nM | B1
< 100 nM | B2
< 100 nM | B3
< 100 nM | B4
< 100 nM | B5
< 100 nM | B6
< 100 nM | B7
< 100 nM | B8
< 100 nM | B9
< 100 nM | B10

target: T2, LRP6e1e2; assay: Octet BLI, affinity class
Protocol: as §1

Kd | Binder
< 500 nM | B11
< 500 nM | B12

target: T3, LRP6E3E4_O75581_631-1246; assay: Octet BLI, affinity class
Protocol: as §1

Kd | Binder
< 500 nM | B13
> 500 nM | B11
> 500 nM | B14
< 500 nM | B15
< 500 nM | B16
< 500 nM | B17
< 500 nM | B12
> 500 nM | B18
< 500 nM | B19

target: T2, LRP6e1e2; assay: Octet BLI
Protocol: as §1

binding result | Binder
no binding | B13
no binding | B15
no binding | B16
no binding | B17
no binding | B19

target: T2, LRP6e1e2; assay: Octet BLI or BIAcore SPR

Kd | Binder
< 500 nM | B20
< 500 nM | B11
< 500 nM | B12

target: T3, LRP6E3E4_O75581_631-1246; assay: Octet BLI or BIAcore SPR

Kd | Binder
< 500 nM | B13
> 500 nM | B14
> 500 nM | B21
< 500 nM | B15
< 500 nM | B22
< 500 nM | B16
< 500 nM | B17
< 500 nM | B23
< 500 nM | B24
> 500 nM | B18
< 500 nM | B19
< 500 nM | B25
